Test results published in the supplement of paper PMC5998384.

What was measured:
HeLa Kyoto [1] = assay: thermal stability score vs G1/S (z-score of summed log2 fold changes over temperatures); higher = more thermally stable than in G1/S
HeLa Kyoto [2] = assay: solubility in G1/S (NP-40 vs SDS abundance) (log2 ratio); higher = more soluble; details: cell cycle stage: G1/S
HeLa Kyoto [3] = assay: melting temperature (median over replicates), in situ; higher = more thermally stable
HeLa Kyoto [4] = assay: solubility change mitosis vs G1/S (difference of NP-40 vs SDS log2 ratios) (log2 ratio difference); higher = more soluble in mitosis
[5] = cell cycle stage: early G1 (4.5 h after nocodazole release)
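Wherever melting temperature (median over replicates), in situ is given: HeLa Kyoto cells synchronized by double thymidine or nocodazole block, proteins quantified by TMT10plex mass spectrometry, three independent biological replicates.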
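Wherever solubility change mitosis vs G1/S (difference of NP-40 vs SDS log2 ratios) is given: synchronized HeLa Kyoto cells (double thymidine block for G1/S, nocodazole release for mitosis), protein amounts in NP-40 versus SDS lysates quantified by mass spectrometry, three biological replicates.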
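Wherever solubility in G1/S (NP-40 vs SDS abundance) is given: HeLa Kyoto cells arrested at G1/S by double thymidine block, proteins quantified by TMT10plex mass spectrometry in mild NP-40 versus SDS extracts, three biological replicates.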
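Wherever thermal stability score vs G1/S (z-score of summed log2 fold changes over temperatures) is given: synchronized HeLa Kyoto cells, proteins quantified by TMT10plex mass spectrometry, three biological replicates, mitosis taken 0.5 h after nocodazole release, G1/S directly after double thymidine block.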

Sequence | thermal stability score (HeLa Kyoto [1]; [5]) | thermal stability score (HeLa Kyoto [1]; cell cycle stage: mitosis) | solubility in G1/S (log2) (HeLa Kyoto [2]) | melting temperature (HeLa Kyoto [3]; cell cycle stage: G1/S) [°C] | melting temperature (HeLa Kyoto [3]; cell cycle stage: mitosis) [°C] | solubility change mitosis (log2) (HeLa Kyoto [4])
MQGGEPVSTMKVSESEGKLEGQATAVTPNKNSSCGGGISSSSSSRGGSAKGWQYSDHMENVYGYLMKYTNLVTGWQYRFFVLNNEAGLLEYFVNEQSRNQKPRGTLQLAGAVISPSDEDSHTFTVNAASGEQYKLRATDAKERQHWVSRLQICTQHHTEAIGKNNPPLKSRSFSLASSSNSPISQRRPSQNAISFFNVGHSKLQSLSKRTNLPPDHLVEVREMMSHAEGQQRDLIRRIECLPTSGHLSSLDQDLLMLKATSMATMNCLNDCFHILQLQHASHQKGSLPSGTTIEWLEPKISLSNHYKNGADQPFATDQSKPVAVPEEQPVAESGLLAREPEEINADDEIEDTCDHKEDDLGAVEEQRSVILHLLSQLKLGMDLTRVVLPTFILEKRSLLEMYADFMSHPDLFIAITNGATAEDRMIRFVEYYLTSFHEGRKGAIAKKPYNPIIGETFHCSWKMPKSEVASSVFSSSSTQGVTNHAPLSGESLTQVGSDCYTVRFVAEQVSHHPPVSGFYAECTERKMCVNAHVWTKSKFLGMSIGVTMVGEGILSLLEHGEEYTFSLPCAYARSILTVPWVELGGKVSVNCAKTGYSASITFHTKPFYGGKLHRVTAEVKHNITNTVVCRVQGEWNSVLEFTYSNGETKYVDLTKLAVTKKRVRPLEKQDPFESRRLWKNVTDSLRESEIDKATEHKHTLEERQRTEERHRTETGTPWKTKYFIKEGDGWVYHKPLWKIIPTTQPAE [OSBPL11] | 0.575 | 1.25 | -0.139 | 50 | 50.4 | -0.0415
MQGPPLLTAAHLLCVCTAALAVAPGPRFLVTAPGIIRPGGNVTIGVELLEHCPSQVTVKAELLKTASNLTVSVLEAEGVFEKGSFKTLTLPSLPLNSADEIYELRVTGRTQDEILFSNSTRLSFETKRISVFIQTDKALYKPKQEVKFRIVTLFSDFKPYKTSLNILIKDPKSNLIQQWLSQQSDLGVISKTFQLSSHPILGDWSIQVQVNDQTYYQSFQVSEYVLPKFEVTLQTPLYCSMNSKHLNGTITAKYTYGKPVKGDVTLTFLPLSFWGKKKNITKTFKINGSANFSFNDEEMKNVMDSSNGLSEYLDLSSPGPVEILTTVTESVTGISRNVSTNVFFKQHDYIIEFFDYTTVLKPSLNFTATVKVTRADGNQLTLEERRNNVVITVTQRNYTEYWSGSNSGNQKMEAVQKINYTVPQSGTFKIEFPILEDSSELQLKAYFLGSKSSMAVHSLFKSPSKTYIQLKTRDENIKVGSPFELVVSGNKRLKELSYMVVSRGQLVAVGKQNSTMFSLTPENSWTPKACVIVYYIEDDGEIISDVLKIPVQLVFKNKIKLYWSKVKAEPSEKVSLRISVTQPDSIVGIVAVDKSVNLMNASNDITMENVVHELELYNTGYYLGMFMNSFAVFQECGLWVLTDANLTKDYIDGVYDNAEYAERFMEENEGHIVDIHDFSLGSSPHVRKHFPETWIWLDTNMGYRIYQEFEVTVPDSITSWVATGFVISEDLGLGLTTTPVELQAFQPFFIFLNLPYSVIRGEEFALEITIFNYLKDATEVKVIIEKSDKFDILMTSNEINATGHQQTLLVPSEDGATVLFPIRPTHLGEIPITVTALSPTASDAVTQMILVKAEGIEKSYSQSILLDLTDNRLQSTLKTLSFSFPPNTVTGSERVQITAIGDVLGPSINGLASLIRMPYGCGEQNMINFAPNIYILDYLTKKKQLTDNLKEKALSFMRQGYQRELLYQREDGSFSAFGNYDPSGSTWLSAFVLRCFLEADPYIDIDQNVLHRTYTWLKGHQKSNGEFWDPGRVIHSELQGGNKSPVTLTAYIVTSLLGYRKYQPNIDVQESIHFLESEFSRGISDNYTLALITYALSSVGSPKAKEALNMLTWRAEQEGGMQFWVSSESKLSDSWQPRSLDIEVAAYALLSHFLQFQTSEGIPIMRWLSRQRNSLGGFASTQDTTVALKALSEFAALMNTERTNIQVTVTGPSSPSPVKFLIDTHNRLLLQTAELAVVQPTAVNISANGFGFAICQLNVVYNVKASGSSRRRRSIQNQEAFDLDVAVKENKDDLNHVDLNVCTSFSGPGRSGMALMEVNLLSGFMVPSEAISLSETVKKVEYDHGKLNLYLDSVNETQFCVNIPAVRNFKVSNTQDASVSIVDYYEPRRQAVRSYNSEVKLSSCDLCSDVQGCRPCEDGASGSHHHSSVIFIFCFKLLYFMELWL [CD109] | -0.942 | 1.58 | -0.179 | 57.6 | 63.2 | -0.257
MQKASVLLFLAWVCFLFYAGIALFTSGFLLTRLELTNHSSCQEPPGPGSLPWGSQGKPGACWMASRFSRVVLVLIDALRFDFAQPQHSHVPREPPVSLPFLGKLSSLQRILEIQPHHARLYRSQVDPPTTTMQRLKALTTGSLPTFIDAGSNFASHAIVEDNLIKQLTSAGRRVVFMGDDTWKDLFPGAFSKAFFFPSFNVRDLDTVDNGILEHLYPTMDSGEWDVLIAHFLGVDHCGHKHGPHHPEMAKKLSQMDQVIQGLVERLENDTLLVVAGDHGMTTNGDHGGDSELEVSAALFLYSPTAVFPSTPPEEPEVIPQVSLVPTLALLLGLPIPFGNIGEVMAELFSGGEDSQPHSSALAQASALHLNAQQVSRFLHTYSAATQDLQAKELHQLQNLFSKASADYQWLLQSPKGAEATLPTVIAELQQFLRGARAMCIESWARFSLVRMAGGTALLAASCFICLLASQWAISPGFPFCPLLLTPVAWGLVGAIAYAGLLGTIELKLDLVLLGAVAAVSSFLPFLWKAWAGWGSKRPLATLFPIPGPVLLLLLFRLAVFFSDSFVVAEARATPFLLGSFILLLVVQLHWEGQLLPPKLLTMPRLGTSATTNPPRHNGAYALRLGIGLLLCTRLAGLFHRCPEETPVCHSSPWLSPLASMVGGRAKNLWYGACVAALVALLAAVRLWLRRYGNLKSPEPPMLFVRWGLPLMALGTAAYWALASGADEAPPRLRVLVSGASMVLPRAVAGLAASGLALLLWKPVTVLVKAGAGAPRTRTVLTPFSGPPTSQADLDYVVPQIYRHMQEEFRGRLERTKSQGPLTVAAYQLGSVYSAAMVTALTLLAFPLLLLHAERISLVFLLLFLQSFLLLHLLAAGIPVTTPGPFTVPWQAVSAWALMATQTFYSTGHQPVFPAIHWHAAFVGFPEGHGSCTWLPALLVGANTFASHLLFAVGCPLLLLWPFLCESQGLRKRQQPPGNEADARVRPEEEEEPLMEMRLRDAPQHFYAALLQLGLKYLFILGIQILACALAASILRRHLMVWKVFAPKFIFEAVGFIVSSVGLLLGIALVMRVDGAVSSWFRQLFLAQQR [PIGO] | -0.415 | -0.374 | -0.193 | 53.6 | 52.7 | 0.0305
MQKIKSLMTRQGLKSPQESLSDLGAIESLRVPGKEEFRELREQPSDPQAEQELINSIEQVYFSVDSFDIVKYELEKLPPVLNLQELEAYRDKLKQQQAAVSKKVADLILEKQPAYVKELERVTSLQTGLQLAAVICTNGRRHLNIAKEGFTQASLGLLANQRKRQLLIGLLKSLRTIKTLQRTDVRLSEMLEEEDYPGAIQLCLECQKAASTFKHYSCISELNSKLQDTLEQIEEQLDVALSKICKNFDINHYTKVQQAYRLLGKTQTAMDQLHMHFTQAIHNTVFQVVLGYVELCAGNTDTKFQKLQYKDLCTHVTPDSYIPCLADLCKALWEVMLSYYRTMEWHEKHDNEDTASASEGSNMIGTEETNFDRGYIKKKLEHGLTRIWQDVQLKVKTYLLGTDLSIFKYDDFIFVLDIISRLMQVGEEFCGSKSEVLQESIRKQSVNYFKNYHRTRLDELRMFLENETWELCPVKSNFSILQLHEFKFMEQSRSPSVSPSKQPVSTSSKTVTLFEQYCSGGNPFEIQANHKDEETEDVLASNGYESDEQEKSAYQEYDSDSDVPEELKRDYVDEQTGDGPVKSVSRETLKSRKKSDYSLNKVNAPILTNTTLNVIRLVGKYMQMMNILKPIAFDVIHFMSQLFDYYLYAIYTFFGRNDSLESTGLGLSSSRLRTTLNRIQESLIDLEVSADPTATLTAAEERKEKVPSPHLSHLVVLTSGDTLYGLAERVVATESLVFLAEQFEFLQPHLDAVMPAVKKPFLQQFYSQTVSTASELRKPIYWIVAGKALDYEQMLLLMANVKWDVKEIMSQHNIYVDALLKEFEQFNRRLNEVSKRVRIPLPVSNILWEHCIRLANRTIVEGYANVKKCSNEGRALMQLDFQQFLMKLEKLTDIRPIPDKEFVETYIKAYYLTENDMERWIKEHREYSTKQLTNLVNVCLGSHINKKARQKLLAAIDDIDRPKR [VPS50] | 0.281 | 0.511 | -0.0656 | 50.8 | 49.6 | -0.108
